In CN114736293A:

Target: SARS-CoV-2 S蛋白(spike protein)，展示于假病毒表面 (SARS-CoV-2) (UniProt P0DTC2)
Test: cell-based or functional assay

For “自组装铁蛋白融合纳米抗体Ferritin-H11-D4(家蚕杆状病毒表达系统表达)”, the IC50(假病毒中和试验) was 2.19 nM, the 中和活性，相对大肠杆菌表达的铁蛋白融合蛋白的倍数 was 20 fold and the 对假病毒的中和活性，相对单独表达的纳米抗体H11-D4的倍数 was 8 fold.
